“Also recorded” adds a separate entry of the source. Like-named read-outs stand apart in the source and are kept apart here.
How the values were obtained:
duck Na,K-ATPase [1] = target: T1, duck Na,K-ATPase (Anas platyrhynchos, UniProt Q7ZYV1); type: binding; conditions: 25 °C, pH 7.5, unit not given
Procedure: (§1) Purified preparation of Na,K-ATPase was obtained from duck salt glands as described elsewhere.
(§2) Experiments were carried out at 25 °C in four buffers, as described elsewhere: (E2P buffer) 10 mM imidazole, 3 mMTris/Pi, 1 mM EDTA, 3 mM MgCl2, 0.1 mM DTT, pH 7.5; (E1/E2 buffer) 10 mM imidazole, 130 mM NaCl, 20 mM KCl, 3 mM MgCl2, 0.1 mM DTT, pH 7.5; (E1 buffer) 10 mM imidazole, 1 mM EDTA, 3 mM NaCl, 0.1 mM DTT, pH 7.5; (E2 buffer) 10 mM imidazole, 1 mM EDTA, 3 mM KCl, and 0.1 mM DTT, pH 7,5. […] Aliquots (2.6 μL) of ligands were injected into a 0.24 mL cell containing the protein solution to achieve a complete binding isotherm. […] Equivalent amounts of DMSO was added to protein solutions to avoid thermal effects of dissolution.
(§3) The effective heat of binding was obtained by subtracting the heat of dilution from the heat of reaction. MicroCal Origin software was used to fit isothermal titration curves. […] The Gibbs energy and enthalpy changes […] were estimated according to the equations: ∆G = −RT lnKa and ∆G = ∆H − T∆S.

Na,K-ATPase [2] = system: Na,K-ATPase; parameters: method as in 2 sources, one per row (each row's own in cited_ref): ref [10],[18] = [10]; PMID 30210292; doi:10.3389/fnmol.2018.00302; 10. Barykin E.P. Petrushanko I.Y. Kozin S.A. Telegin G.B. Chernov A.S. Lopina O.D. Radko S.P. Mitkevich V.A. Makarov A.A. Phosphorylation of the Amyloid-Beta Peptide Inhibits Zinc-Dependent Aggregatio || [18]; PMID 27296892; doi:10.1038/srep27738; 18. Petrushanko I.Y. Mitkevich V.A. Anashkina A.A. Adzhubei A.A. Burnysheva K.M. Lakunina V.A. Kamanina Y.V. Dergousova E.A. Lopina O.D. Ogunshola O.O. Direct Interaction of Beta-Amyloid with Na,K-ATP ||| ref [39] = [39]; PMID 26297827; doi:10.1016/j.febslet.2015.08.011; 39. Klimanova E.A. Petrushanko I.Y. Mitkevich V.A. Anashkina A.A. Orlov S.N. Makarov A.A. Lopina O.D. Binding of Ouabain and Marinobufagenin Leads to Different Structural Changes in Na,K-ATPase and De; conditions: ref [39]; cited from earlier work
duck Na,K-ATPase [3] = target: T1, duck Na,K-ATPase; experiment: Isothermal titration calorimetry (MicroCal iTC200), Aβ42 binding to Na,K-ATPase in different states; conditions: 25 °C; for T∆S, entropy variation: calculated from ∆G = ∆H − T∆S; for ∆H, enthalpy variation: three to four measurements, SD did not exceed ±10%
Procedure: Briefly, the peptide was dissolved in hexafluoroisopropanol (Fluka), dried, and stored at −80 °C. Before the experiment, the peptide was dissolved in DMSO for 1 h and then diluted in the buffer solution.
as §1, §2, §3

Na,K-ATPase [4] = conditions: ref [18]; cited from earlier work
Text: (§4) Here we study the binding interface of Aβ with Na,K-ATPase. Na,K-ATPase creates a sodium/potassium gradient, and inhibition of pump activity by Aβ leads to impairment of electrotonic properties of neurons.

[5] = system: neuroblastoma cells SH-SY5Y; conditions: ref [18]; cited from earlier work
Text: as §4

[6] = hexafluoroisopropanol, dried, DMSO for 1 h, diluted in buffer; ref [18]; cited from earlier work
Procedure: Aβ42 peptide was synthesized by Biopeptide. […] Briefly, the peptide was dissolved in hexafluoroisopropanol (Fluka), dried, and stored at −80 °C. Before the experiment, the peptide was dissolved in DMSO for 1 h and then diluted in the buffer solution.

[7] = Na,K-ATPase in complex with Aβ42
[8] = enzyme in E2P conformation (without Aβ42)
[9] = OBN state (26 µM ouabain), pH 7.5

| Compound | T∆S (duck Na,K-ATPase [1]; [7]) | ∆H (duck Na,K-ATPase [1]; [7]) | T∆S (duck Na,K-ATPase [1]; [8]) | ∆H (duck Na,K-ATPase [1]; [8]) | Na,K-ATPase conformation bound (Na,K-ATPase [2]) | T∆S, entropy variation (duck Na,K-ATPase [3]; E1/E2 state, pH 7.5) [kcal/mol] | ∆H, enthalpy variation (duck Na,K-ATPase [3]; E1/E2 state, pH 7.5) [kcal/mol] | T∆S, entropy variation (duck Na,K-ATPase [3]; E1 state, pH 7.5) [kcal/mol] | ∆H, enthalpy variation (duck Na,K-ATPase [3]; E1 state, pH 7.5) [kcal/mol] | T∆S, entropy variation (duck Na,K-ATPase [3]; E2P state, pH 7.5) [kcal/mol] | ∆H, enthalpy variation (duck Na,K-ATPase [3]; E2P state, pH 7.5) [kcal/mol] | Ka, affinity constant (duck Na,K-ATPase [3]; E2 state, 10 mM imidazole, 1 mM EDTA, 3 mM KCl, 0.1 mM DTT, pH 7.5, measured three to four times, SD did not exceed ±20%) [M⁻¹] | T∆S, entropy variation (duck Na,K-ATPase [3]; E2 state, pH 7.5) [kcal/mol] | ∆H, enthalpy variation (duck Na,K-ATPase [3]; E2 state, pH 7.5) [kcal/mol] | T∆S, entropy variation (duck Na,K-ATPase [3]; [9]) [kcal/mol] | ∆H, enthalpy variation (duck Na,K-ATPase [3]; [9]) [kcal/mol] | Aβ42 binding to Na,K-ATPase in complex with ouabain compared with free enzyme (duck Na,K-ATPase [3]; OBN state, sequential titration with ouabain then Aβ42 in E2P buffer) | effect of complex formation on enzyme hydrolytic activity (Na,K-ATPase [4]) | effect of exogenous Aβ42 on enzyme transport and hydrolytic activity [5] | form present in the solution [6] |
| --- | --- | --- | --- | --- | --- | --- | --- | --- | --- | --- | --- | --- | --- | --- | --- | --- | --- | --- | --- | --- |
| C[C@@H]1O[C@@H](O[C@H]2C[C@@H](O)[C@]3(CO)[C@H]4[C@H](O)C[C@]5(C)[C@@H](C6=CC(=O)OC6)CC[C@]5(O)[C@@H]4CC[C@]3(O)C2)[C@H](O)[C@H](O)[C@H]1O [ouabain] | −10.8 | −20.2 ± 0.7 | −4.2 | −13.7 ± 0.2 | binds predominantly to the E2P conformation |  |  |  |  |  |  |  |  |  |  |  |  |  |  |  |
| Aβ42: Aβ42 peptide was synthesized by Biopeptide |  |  |  |  |  | 5.48 | -2.54 | 6.02 | -1.54 | 6.19 | -1.59 | 490000 | 5.55 | -2.21 | 6.87 | -1.21 | in the same way as the free enzyme; also recorded: did not change | dose-dependent inhibition of enzyme hydrolytic activity | pronounced decrease in enzyme transport and hydrolytic activity | mainly in the monomeric form |

— article PMC9313104 (Biomedicines, 2022)
